Macrophage ADCP on-chip of MDA-MB-468 cells, fold increase over the background; AdV delivery of SIRPα-Fc alone (blocks the CD47-SIRPα axis) and Kd data for two substances are collected here from PMC13469128.

In assay [1] the target is human CD47 on cells (human (endogenous in HCT116, MDA-MB-468, OVCAR3, HUVEC, C5120)) (UniProt Q08722).
For another assay, the target named is CD47 (Mus musculus) (UniProt Q61735). The note with it: cited from earlier work.
The target in another assay is CD47 (Homo sapiens) (UniProt Q08722). As to conditions: cited from earlier work.

Chain of SIRPα-Fc (P78324 31-373): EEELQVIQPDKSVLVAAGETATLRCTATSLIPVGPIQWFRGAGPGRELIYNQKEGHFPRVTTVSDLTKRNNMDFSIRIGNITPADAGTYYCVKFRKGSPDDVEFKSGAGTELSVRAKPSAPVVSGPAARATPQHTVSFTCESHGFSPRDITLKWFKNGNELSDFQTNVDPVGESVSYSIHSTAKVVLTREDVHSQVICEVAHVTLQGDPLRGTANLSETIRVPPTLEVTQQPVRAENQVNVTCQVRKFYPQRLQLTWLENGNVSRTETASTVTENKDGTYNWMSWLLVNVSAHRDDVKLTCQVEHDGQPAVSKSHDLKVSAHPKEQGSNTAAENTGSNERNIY
Chain of UniProt Q61735 (Q61735 19-303): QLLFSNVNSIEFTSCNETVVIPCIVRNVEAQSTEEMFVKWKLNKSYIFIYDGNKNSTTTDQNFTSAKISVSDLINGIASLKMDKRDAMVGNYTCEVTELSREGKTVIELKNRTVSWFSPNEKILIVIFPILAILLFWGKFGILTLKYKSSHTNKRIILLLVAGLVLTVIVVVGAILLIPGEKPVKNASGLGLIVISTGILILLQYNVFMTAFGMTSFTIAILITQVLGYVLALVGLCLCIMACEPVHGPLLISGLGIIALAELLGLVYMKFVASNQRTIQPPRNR

In turn, SIRPα-Fc fusion protein returned a macrophage ADCP on-chip of MDA-MB-468 cells, fold increase over the background; AdV delivery of SIRPα-Fc alone (blocks the CD47-SIRPα axis) in assay [1] of 1.7 fold.
What is called Kd is the free concentration of one partner at which half of the binding sites on the other are occupied at equilibrium, for simple one-to-one binding. Regarding SIRPα-Fc (from UniProt P78324), the dissociation constant Kd is 58 nM with CD47 (Mus musculus) and 1 nM in the assay with CD47 (Homo sapiens).
